± gives the uncertainty stated by the source.
Assay: amyloid nucleation score (Sup35N fusion, yeast selection) (log enrichment); library NNK3; higher = more nucleation; inactive = no reads after selection
Outline: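 Three technical output replicates were used for random libraries. Psi-negative yeast expressing peptides of 20 random codons fused to Sup35N were induced with 100 μM copper sulfate for 24 hours and grown 7 days at 30°C on medium lacking adenine and uracil, and input and output plasmid inserts were Illumina-sequenced, excluding sequences with under 100 input reads. The nucleation score is the DiMSum log enrichment of output over input reads, centred on the mode score of non-aggregating sequences.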

Substance | amyloid nucleation score
NVGMSKNVFGM | inactive
KGRFVLLDTTAQLNI | inactive
RGITMCMSVL | inactive
CSLCYETGSICVVSRGEDGL | inactive
HSVIPWDTISDTA | inactive
SDSSYSYTVF | inactive
YTERYS | -0.265 ± 0.96
HRRLGRTFFCATLGLHLCDF | inactive
DKYFVAASWFRWVLVYMGWS | inactive
FSIPPFTRTCLKNGLHYSVR | -0.759 ± 0.88
LESSVMLLKRRIILVLCLHG | inactive
GNWWCNCTQYNLGMMDSALG | 1.98 ± 0.071
AIVCMHYQVVHCVKVSTCCY | inactive
RNNDDSVLMDMLCMKCRTWL | inactive
SPNNTTFSHYRFCLL | inactive
FFYNDVETVCNVICPKVYSD | inactive
VSVLCMYFVVGPKMVRVSYG | inactive
RPQSLVYRFISYHRLYYLYR | inactive
PRCISSPRSPSLNVWVLKSE | inactive
YLLDKYEVAFIPSHLVLHSP | inactive
HASMQFWKVDNSFNALMRLG | 0.398 ± 0.18
WMDNAI | inactive
SFYVLIVQRCELMSVVVMES | inactive
CVYNRLNMF | -0.296 ± 0.28

Substance | amyloid nucleation score
VAAFVNRARNATFVLALYCY | inactive
ALGIICVGLAFDGSLDLTS | 1.25 ± 0.15
WFSYQFV | inactive
CSCWTISLFCLWQTLRFPPI | 0.438 ± 0.23
ITRWLIVLAVMYYSILSLSV | inactive
MRKLDPFNSKP | inactive
YFRFFTFSNCRDYKDTYPTL | 0.972 ± 0.23
FFASSIYQRALYTVILSSPT | inactive
RTAWHMCLFCLNVTNLSWLM | 2.15 ± 0.052
FMSSVM | inactive
LTRLLGDLIPPVNMGARECD | inactive
HYWEVYLGTCLRAQDVQER | 1.57 ± 0.097
SRVHPPLWIKCTVGMVPQTC | inactive
SRFDDCSVYRESWVSIVRLS | inactive
LMIISGCSHMSHSVRSTRGL | -0.217 ± 0.58
EGPVSGPC | inactive
LAWVLMHSAKLGLKKRQAWG | inactive
RSPEFCMS | inactive
NQVMKSNVVYYKATVNNMCF | 2.09 ± 0.071
SKSFVYPVNVCRRWLAVLGN | inactive
LNTGLLLLCG | inactive
FLSYLSSIPAPYLNGSAGTT | inactive
WLFAIFGDGAVFGSYGGWGV | inactive
FCFLLKALTYHLS | -0.067 ± 0.75

Substance | amyloid nucleation score
FRADSSVGVIKVCLGRLCRW | inactive
SWSFMFSFSNSATNAACLPQ | 0.327 ± 0.27
SSSAFCGVAIRALIAGGKGY | inactive
APDFATIFITRWGDIQTLLV | inactive
SIICCAFLVVQFKER | 2.62 ± 0.084
RFLSMSTLKRDS | inactive
RTRKQRCHRCVWMLLGDYQR | inactive
CILYRFPPATKSHRITGIYK | inactive
ANLIIVSVHFPRITTCYNNP | 1.95 ± 0.068
EGNMLASRSSGEPS | inactive
HEVLVVIRNLFDFVVFCVLQ | inactive
RWCYLTEKKFSGLFNL | inactive
SIQCSK | inactive
VKCVYERRDGRLWLMILAMG | -0.481 ± 0.52
TFCFLQVN | inactive
PSMKL | inactive
IRSIEPYPMHTTSW | -0.428 ± 1.1
STWYSRCVLALNLLLSCNRG | 1.38 ± 0.13
FVLQFSSGCYFGPD | inactive
IFMITDQ | inactive
WYRLRYSQST | inactive
CFTDSFINTLCVFNIDPGFP | 2.46 ± 0.051
VLDVVGKKFMRVSWQDGMPG | 1.13 ± 0.18
LGVALVTICVLRECGKILYI | -0.107 ± 0.68

Substance | amyloid nucleation score
CRPRLVLSFGQIVY | inactive
AANLDYSRLLEVLE | inactive
EKMAADQSS | inactive
MIWFVLL | 2.17 ± 0.089
CCEFC | inactive
HCCVLSARGWLIGSMRWPHC | inactive
IFLFSSRCALDNIVEPWFFW | inactive
MSMFYSNRHNPVKRTSGTGL | inactive
YHLSQAYDMKVYILNRCGLF | 0.506 ± 0.38
YYIYIYMCRLLVYIGFHFYW | inactive
FMPHARASQQLPGGSHFLNL | inactive
GWLGSVGAKPADRVGKTGGI | 0.504 ± 0.24
TDFDNFSDTF | inactive
SVTLRATGSGNRRYDAIRNY | inactive
LADWQMGVPRGLQVMVCTTL | inactive
IRTNYRRGKEAGVSGADSCS | inactive
RCGTLYRGG | inactive
LFLMWRTYYVNILESSCVVC | inactive
TVCYYWRN | 0.911 ± 0.2
IISDQEFSYETCDFSYFCKG | inactive
AIIVCDC | inactive
IKSCGVNNIAFLQVCHRWCS | 1.6 ± 0.082
MPCVMILYVIYSIY | 0.013 ± 0.59
IDIVCAF | inactive

Substance | amyloid nucleation score
ECYCWFVNWLSFCKNGYSGM | inactive
IRSTGLINFQYWKMKTFLII | inactive
VKGGRLISLNRVLFLEDPVG | inactive
RSNWPSTILTSWSARCHWLS | inactive
SFNFSRHLVLF | inactive
WLVGICWNWRWHLAVAGVVG | inactive
VLVNHGFYW | inactive
YTLLCNPMVSKSARRLLNWI | inactive
KCGFYRTVFCSRVCVRS | inactive
IGWGVQFELFGTWRVEIPLV | inactive
CMQSEHTTSAYYRLDCS | -0.276 ± 0.41
YDYYFFNSFNISDIMR | inactive
IVCRGYSSKWYSVSEYKDNV | 0.016 ± 0.37
FCWVLCTP | inactive
RPSSQVYGRWEIYIKYL | inactive
IKCIPFCDVGWSLTVLRYVT | inactive
AAPCFVKLLHGLVVRVQVVM | inactive
GLFRFFVIIITEEVRRAVSK | inactive
RDVMWVNHVYCMLEFWTWVV | inactive
YGNEFEDNPSMATTTDQRAR | 0.468 ± 0.22
DDCQFSDNRRFKSVPSYSQR | inactive
SIDVLKTNINDIRFVIKIRR | inactive

— the supplement of paper PMC12042874
